The target in the assay is T1, D3 fragment of DROSHA (amino acids 390–1365) (human, UniProt Q9NRR4 390-1365).
T1 sequence (looked up): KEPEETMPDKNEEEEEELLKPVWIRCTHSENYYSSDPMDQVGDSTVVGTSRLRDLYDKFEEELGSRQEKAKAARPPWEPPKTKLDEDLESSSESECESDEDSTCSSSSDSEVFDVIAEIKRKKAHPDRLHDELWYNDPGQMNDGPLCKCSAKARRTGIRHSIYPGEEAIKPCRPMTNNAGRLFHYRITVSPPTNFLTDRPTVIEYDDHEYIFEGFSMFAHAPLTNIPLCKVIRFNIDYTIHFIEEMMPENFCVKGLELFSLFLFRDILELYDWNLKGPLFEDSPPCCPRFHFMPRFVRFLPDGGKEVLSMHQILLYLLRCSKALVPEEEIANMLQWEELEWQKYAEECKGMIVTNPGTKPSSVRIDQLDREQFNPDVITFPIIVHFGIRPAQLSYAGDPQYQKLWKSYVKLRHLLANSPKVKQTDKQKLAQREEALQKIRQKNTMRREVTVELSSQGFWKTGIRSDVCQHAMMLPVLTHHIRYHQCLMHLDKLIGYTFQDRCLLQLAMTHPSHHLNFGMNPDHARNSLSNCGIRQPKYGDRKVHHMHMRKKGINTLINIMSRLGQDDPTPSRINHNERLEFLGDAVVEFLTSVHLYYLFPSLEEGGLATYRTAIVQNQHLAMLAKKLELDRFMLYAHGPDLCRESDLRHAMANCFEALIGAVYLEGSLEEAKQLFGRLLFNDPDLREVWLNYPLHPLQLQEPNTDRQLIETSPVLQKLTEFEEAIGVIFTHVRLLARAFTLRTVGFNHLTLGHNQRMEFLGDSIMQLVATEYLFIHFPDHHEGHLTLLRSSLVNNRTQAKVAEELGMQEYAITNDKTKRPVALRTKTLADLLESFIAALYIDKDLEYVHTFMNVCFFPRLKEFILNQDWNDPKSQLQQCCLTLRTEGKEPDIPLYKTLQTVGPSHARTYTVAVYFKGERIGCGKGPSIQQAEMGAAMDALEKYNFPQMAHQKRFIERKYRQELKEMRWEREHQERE
Description: reconstitution by mixing purified proteins.

B1: G4 fragment of DGCR8 (amino acids 285–750), dimeric (domain or fragment, human, UniProt Q8WYQ5 285-750, looked up)
chain: MTKIKTVLKSRGRPPTEPLPDGWIMTFHNSGVPVYLHRESRVVTWSRPYFLGTGSIRKHDPPLSSIPCLHYKKMKDNEEREQSSDLTPSGDVSPVKPLSRSAELEFPLDEPDSMGADPGPPDEKDPLGAEAAPGALGQVKAKVEVCKDESVDLEEFRSYLEKRFDFEQVTVKKFRTWAERRQFNREMKRKQAESERPILPANQKLITLSVQDAPTKKEFVINPNGKSEVCILHEYMQRVLKVRPVYNFFECENPSEPFGASVTIDGVTYGSGTASSKKLAKNKAARATLEILIPDFVKQTSEEKPKDSEELEYFNHISIEDSRVYELTSKAGLLSPYQILHECLKRNHGMGDTSIKFEVVPGKNQKSEYVMACGKHTVRGWCKNKRVGKQLASQKILQLLHPHVKNWGSLLRMYGRESSKMVKQETSDKSVIELQQYAKKNKPNLHILSKLQEEMKRLAEEREETR
As for B1, the binding result is “binds”.

For the origin of these results see publication PMC10770632 (STAR Protocols, 2023).
